Laboratory results taken from the nanobody polyreactivity screen of Harvey et al. (2022).

Experiment: yeast display, Sf9 membrane polyspecificity reagent, FACS + sequencing; frameworks hold sequencing errors
In short: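 A synthetic nanobody library was expressed on Saccharomyces cerevisiae BJ5465 by galactose induction for 36–48 hours. The library was stained for 1 hour at 4 °C with 10% biotinylated, detergent-solubilized Sf9 membrane reagent and enriched with streptavidin microbeads before FACS. Low and high (top ~1%) gates were set on anti-HA fluorescence for expression and streptavidin fluorescence for reagent binding, and each polyreactivity label reflects the gate of origin.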

Row | Sequence | polyreactivity (PSR sort gate)
1 | QVQLVESGGGLVQAGGSLRLSCAASGSIFVPYAMGWYRQAPGKERELVAAISNGDSTYYADSVKGRFTISRDNAKNTVYLQMNSLKPEDTAVYYCATRGIPDDNARDYWGQGTQVTVSS | low polyreactivity
2 | QVQLVESGGGLVQAGGSLRLSCAASGFIFLYYAMGWYRQAPGKERELVAAITTRGGRTYYADSVKGRFTISRDNAKNTVYLQMNSLKPEDTAVYYCAVQVSWSYYRYGYWGQGTQVTVSS | low polyreactivity
3 | QVQLVESGGGLVQAGGSLSLSCAASGIIFYYYAMGWYRQAPGKERELVAAISTSGGRTYYADSVKGRFTISRDNAKNTVYLQMNSMKPEDTAVYYCAADYLKGEEDYWGQGTQVTVSS | low polyreactivity
4 | QVQLVESGGGLVQAGGSLRLSCAASGIIIGLYGRGWYRQAPGKERELVAAISSSGGSTYYADSVKGRFTISRDNAKNTVYLQINSLKPEDTAVYYCARVVRSLWGGLYLYDYWGQGTQVTVSS | low polyreactivity
5 | QVQLVESGGGLVQAGGSLRLSCAASGSTFDGNAMGWYRQAPGKERELVAAITRAGRTSYADSVKGRFTISRDNAKNTVYLQMNSLKPEDTAVYYCAKGGYDYWGQGTQVTVSS | low polyreactivity
6 | QVQVVESGGGLVQAGGSLRLSCAASGFTSTRYAMGWYRQAPGKERELVAAISYGGGDTYYADSVKGRFTISRDNAKNSVYLQMNSMKPEDTAVYYCNARGRYRKSERRAFDYWGQGTQVTVSS | high polyreactivity
7 | QVQLVESVGGLVQAGGSLRLSCAASGRTLSYYAMGRYRQAPGKVRELVAAISRRGGSTYYADSVKGRFTISRDKAKNTVYLQMNCLQSKDTAFYYCAATVGNAADYDYGYWGQGTQVTVSS | high polyreactivity
8 | QVQLVESGGGLVQAGGSLRLSCAASGFAFSYYAMGWYRQATGKEREFVASIDWSGGSTYYADSVKGRFTISRDNAKNTVYLQLNSLKPEDTAVYYCAAELDYFPGYDYWGQGTQVTVSS | low polyreactivity
9 | QVQLVESGGGLVQAGGSLRLSCAASGSTFGPYAMGWYRQAPGKERELVATITRNGGSTYYADSVKGRFTISRDNAKNTVYLQMNSLKPEDTAVYYCNAEGRWSSFTQRMDYWGQGTQVTVSS | low polyreactivity
10 | QVQLVESGGGLVQAGGSLRLSCAASGRTFGKYARGWYRQAPGKERELVASITFSSGSTYYADSVKGRFTISRDNAKNTVYLQMNSLKPEDTAVYYCAKRGWGIYDYWGQGTQVTVSS | low polyreactivity
11 | QVQLVESGGGLVQAGGSLRLSCAASGFTFYQYAMGWYRQAPGKEREFVAAISSSGSSTYYADSVKGRFTISRDNAKNTVYLQMNSLKPEDTAVYYCNAYFRNWRYSPGGYWGQGTQVTVSS | high polyreactivity
12 | QVQLVESGGGLVQAGVSLRLSCAASGLIFVFYAMGWYRQAPGKERELVAAISRSGTSTYADSVKGRFTISRDNAKNTVYLQMNSLKPADTAVYYCNAYRYYSPYGYWGQGTQVTVSS | low polyreactivity
13 | QVQLVESGGGLVQAGGSLRLSCAASGSTFTTYAMAWYRQAPGKERELVAAISTNGGRTFYADSVKGRFTISRDNAKNTVYLLMNSLKAEDTAVYYCAADRAGSIMNYWGQGTQVTVSS | low polyreactivity
14 | QVQLVESGGGLVQAGGSLRLSCAASGSIFLQNAMGWYRQAPGKERELVARITTSGGSTYYADSVKGRFTISRDNAKNTVYLPMNSQKPEDTAVYYCAVRSRRQRGGIRGFDYGGQGTQVTVSS | high polyreactivity
15 | QVQLVESGGGLVQAGGSLRLICAASGSTFGDYDMGWYRQAPGKETELVAAISNGGSTYYADSVKGRFTISRDYAKNTVYLQMNSLKREETAVYYCNADNVEIRSTYEYGRYLYGYWGQGTQVTVSS | low polyreactivity
16 | QVQLVESGGGLVQAGGSLRLSCAASGGTITRYAMGWYRQAPGKERELVAAISSSGGSTYYADSVKGRFTISRDNAKNTVYLQMNSLKPEDTAVYYCAAEGYTLWYWLEFEYWGQGTQVTVSS | high polyreactivity
17 | QVQLVESGGGLVQAGGSLRLSCAASGIIFFYNAMGWYRQAPGKERELVAAIRRGGRTNYADSVKGRFTISRDNAKNTVYLQMNSLKPEDTAVYYCNKDFYPGDYWGQGTQVTVSS | low polyreactivity
18 | QVQLVESGGGLVQAGGSLRLSCAASGRIFNYYAMGWYRQAPGKEREFVAAITRSGGRTYYADSVKGRFTISRDNAKNTVYLQMNSLKPEDPAVYYCAAGRYVWREYYYWGQGTQVTVSS | high polyreactivity
19 | QFKLVESGGGLVQAGGSLRLSCAASGFTFRLVKAMRWYRQAPGKERELVAGINSGDITYYADSVKGRFTISRDNAKNTVYLQMNSLKPEDTAVYYCAARVVYGYGHYDYWGQGTQVTVSS | low polyreactivity
20 | QVQLVESGGGLVQAGGSLRLSCAASGFTFNRNAMGWYRQAPGKERELVAAISRGGSTSYADSVKGRFTISRDNAKNTVYLQMNSLKPEDTAVYYCATYFRVYYSQYDYWGQGTQVTVTS | high polyreactivity
21 | QVQLVESGGGLVQAGGSLRLSCAASGLTFTGYAMGWYRQAPGKERELVAAISSRGGSTYYADSVKGRFTISRDNAKNTVYLQMNSLKPEDTAVYYCAARASSGARGLDYWGQGTQVTVSS | high polyreactivity
22 | QVQLEESGGGLVQAGGSLRLSCAASGRTFKINAMGWYRQAPGKERELVAAIRRRGGSTYYADSVKGRFTISRDNAKNTVYLQMNSLKPEDTAVYYCAKTSWPYRVPSDSVAYDYWGQGTQVTVSS | low polyreactivity

Row | Sequence | polyreactivity (PSR sort gate)
23 | QDQLVESGAGLVQAGGSLRLSCAASGRTFAYNAMGWYRQAPGKERELVASITSGGSTNYADSVKGRFTISRDNAKNTVYLQMNCLKPEDTAVYYCNKDGKYHRVLYDYWGQGTQVTVSS | low polyreactivity
24 | QVQLVESGGGLVQAGGSLRLSFAASGSTFTINAMGWYRPAPGKERELVAAINDGHDTYYADSVKGRFTISRDNAKNTVYLQMNSLKPEDTAVYFCAADIIYGYEVYTYTSDYWGQGTQVTVSS | low polyreactivity
25 | QVQLVESGGGLVQAGGSLRLSCAASGLTIYHYSMGCYRQAPGKERELGAAISGNGVSTYYADSVKGRFTISRDNAKNTVYLQMNSLNPEDTAVYYCNVVFRFNSFDFYYWGLGTQVTVSS | high polyreactivity
26 | QVQLVESGGGLVQAGGSLRLSCPASGFTFYYYAMGWYRQAPGKERELVAAISYSGGSTYYADSVKGRFTISRDNAKNTVYLQMNRLKPEDTAVYYCAADLSTYRRGFDYWGQGTQVTVSS | high polyreactivity
27 | QVQLVESGGGLVQAGGSLRLSCAASGSIQTLYAMGWYRQAPGKERELVAAITSGDRTNYADSVKGRFTISRDNAKNTVYLQMNSLKPEDTAVYYCATKRWWGRYDYWGQGTQVTVSS | high polyreactivity
28 | QVQLVESGGGLVQAGGSHRLSCAASGIIFYRNAMGWYRQAPGKEREFVAAISSSGTNTYYADSVKGRFTISRDNAKITVYLQMNSLKPEDTAVYYCNADPDDGYFSDFDYWGQGTQVTVSS | low polyreactivity
29 | QVQLVESGGGLVQAGGSLRLSCAASGSIFGVYAMGWYRQAPGKERELVASITSGSSTNYADSVKGRFTISRDNAKNTVYLQMNSLKPEDTAVYYCAAGRTSRSRRYYRFFYAGDYWGQGTQVTVSS | low polyreactivity
30 | QDQHVESGGGLVQAGGSLRLSCAASGTTFSLYMGWNRQSPGKERKLVAAITYSGGRTYYADSVKGRFTISRDNAKNTVYLQMNSLKPEDTAVYYCGTVFNDLTVYEYWSRFDYWGQGTQVTVSS | low polyreactivity
31 | QVQLVESGGVLFQAGGSLSLSCAASGLTFPRYAMGWYRQAPGKESELDAAISYRGSRTYYADSVKGRFTISRDNAKNTVYLQMNSLKPEDTAVYYCNKVRPGYGVTYLVGYWGQGTQVTVSS | high polyreactivity
32 | QVQLVESGGGLVQAGGSLRLSCAASGSPFSVYAMGWYRQAPGKERELVAAISWTVGSTYYADSVKGRFTISRDTAKNTVYLQMNSLIPEDTAVYYCAADIYWHYDYWGQGTQVTVSS | high polyreactivity
33 | QVQLVESGGGLVQAGGSLRLSCAASGSTFVRYAMGWYRQAPGKERELVAAIRWSSGSTYYADSVKGRFTISRDNAKNTVYLQMNSLKPEDTAVYYCAKRQYLYTSKYDYWGQGTQVTVSS | high polyreactivity
34 | QVQLVESGGGLVQAGGSLRLSCAASGRIFSHKAMGWYRQAPGKERELVAGISSGGGTTYADSVKGRFTISRDNAKNTVYLQMNSLKPEDTAVYYCNKQDQPVGRSGYPYGYDYWGQGTQVTVSS | low polyreactivity
35 | QGQLVESGGGLVQAGGSLRLSCAASGSSFANYDMGRYRQAPGKERELVAAITSDGSTYYADSVKGRFTISRDNAKNTVYLQMNSLKPEDTAVYYCAASTPSDAWVDDWGQGTQVTVSS | low polyreactivity
36 | QVQLVESGGGLVQAGGSLRLSCAASGSIFDDYTMVWYRQAPGKEREFVATITSSGSTYYADSVKGRFTISRDNAKNTVYLQMNSLKPEDTAVYYCNADDTYYPLGGITGYDYWGQGTQVTVSS | low polyreactivity
37 | QVQLVESGGGLVQAGGSLRLSCAASGRTFGLYAMGWYRQAPGKERELVAAIDQSTGSTYYADSVKGRFTISRDNAKNTVYLQMNRLKPEDTAVYYCAAEEASTVRYYWYDYWGQGTQVTVSS | high polyreactivity
38 | QVQLVESGGGLVQAGGSLRLSCAASGSTFYYYAMGWYRQAPGKERELVAVITRGGGTYYADSVKGRFTISRDNAKNTVYLQMNSLKPEDTAVYYCNARQRSSTRKGYNYWGQGTQVTVSS | high polyreactivity
39 | QVQLVESGGGLVQAGGSLRLRCAASGSIFRRYAMGRYRQAPGKERELVATITSTDSTNYADSVKGRFTISRDNAKNTVYLQMNSLKPEDTAVYYCAKRPYDYRLNSEYYYWGQGTQVTVSS | low polyreactivity
40 | QVQLVESGGGLVQAGGSLRLSCADSGYIFDAYAMGWYRQAPGKERELVAAIDIGGSTYYADSVKGRFTISRDNAKNTVYLQMNSLKPEDTAVYYCAEWFYFDQWDYAREYWGQGTQVTVSS | low polyreactivity
41 | QVQLVESGGGLVQAGGSLRLSCAASGSIFGYYAMGWYRQAPGKERELVAAIDSGGVSTYYADSVKGRFTISRDIAKNTVYLQMNSLKAEDTAVYYCAKRGPVRKTAYDYWGQGTQVTVSS | low polyreactivity
42 | QDQLVESGGGLVQAGGSLRLSCAASGFIFYSNAMGWYRQEPGKERELVAAITSGGGSTYYADSVKGRFTISRDTAKNTVYLQMNSLKPEDTAVDYCAVSIGRYPYRYGYWGQGTQVTVSS | high polyreactivity
43 | QVQLVESVGGLVQAGGILRLSSAASGSTFERYAMGWDRQAPGKEREFVATINWGGGSTYYADSVKGRFTISRDNAKKTVYLQMNSLKPEDTAVDYCNAYVLYQSWRFSYDYWGQGTHVTVSS | low polyreactivity
